{
  "source": "patent US20150104466A1",
  "about": "(WISCONSIN ALUMNI RESEARCH FOUNDATION, published 2015)",
  "binders": {"B1": {"name": "HCMV AD169 glycoprotein B disintegrin-like domain (amino acids 57-146), His-tagged, expressed in E. coli (other)", "chain": "VTSSEAVSHRANETIYNTTLKYGDVVGVNTTKYPYRVCSMAQGTDLIRFERNIICTSMKPINEDLDEGIMVVYKRNIVAHTFKVRVYQKV", "notes": "range 57-146; also called gBDLD; gBDLD fragment; not shown: N-terminal His-Tag with thrombin cleavage site from vector pET-28a"}},
  "key": {"β1 integrin": {"target": "β1 integrin (human, UniProt P05556 21-798)", "sequence (P05556 21-798)": "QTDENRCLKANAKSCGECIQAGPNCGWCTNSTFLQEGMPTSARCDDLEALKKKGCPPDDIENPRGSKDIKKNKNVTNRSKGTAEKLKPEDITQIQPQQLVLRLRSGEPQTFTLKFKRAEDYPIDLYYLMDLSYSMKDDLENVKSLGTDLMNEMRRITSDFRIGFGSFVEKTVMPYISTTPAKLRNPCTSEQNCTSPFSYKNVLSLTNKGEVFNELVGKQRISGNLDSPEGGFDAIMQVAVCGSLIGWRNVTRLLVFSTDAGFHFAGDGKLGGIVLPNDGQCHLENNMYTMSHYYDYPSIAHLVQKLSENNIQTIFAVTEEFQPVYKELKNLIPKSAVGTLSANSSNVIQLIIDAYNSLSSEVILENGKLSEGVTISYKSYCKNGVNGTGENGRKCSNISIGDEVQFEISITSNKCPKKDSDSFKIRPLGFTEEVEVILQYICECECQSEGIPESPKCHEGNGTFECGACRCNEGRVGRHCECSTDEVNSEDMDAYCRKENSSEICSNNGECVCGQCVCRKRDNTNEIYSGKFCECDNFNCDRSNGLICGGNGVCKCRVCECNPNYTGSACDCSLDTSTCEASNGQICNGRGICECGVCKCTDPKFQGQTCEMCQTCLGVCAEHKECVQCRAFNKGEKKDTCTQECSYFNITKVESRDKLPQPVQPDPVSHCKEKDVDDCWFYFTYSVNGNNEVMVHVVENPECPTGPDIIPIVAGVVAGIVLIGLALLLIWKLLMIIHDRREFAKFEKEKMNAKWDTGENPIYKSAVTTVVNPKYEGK", "test": "cell-based or functional assay"}, "β3 integrin": {"target": "T1, β3 integrin (human, UniProt P05106 27-788)", "T1 construct": "also called β3 integrins", "T1 sequence (P05106 27-788 limits assumed)": "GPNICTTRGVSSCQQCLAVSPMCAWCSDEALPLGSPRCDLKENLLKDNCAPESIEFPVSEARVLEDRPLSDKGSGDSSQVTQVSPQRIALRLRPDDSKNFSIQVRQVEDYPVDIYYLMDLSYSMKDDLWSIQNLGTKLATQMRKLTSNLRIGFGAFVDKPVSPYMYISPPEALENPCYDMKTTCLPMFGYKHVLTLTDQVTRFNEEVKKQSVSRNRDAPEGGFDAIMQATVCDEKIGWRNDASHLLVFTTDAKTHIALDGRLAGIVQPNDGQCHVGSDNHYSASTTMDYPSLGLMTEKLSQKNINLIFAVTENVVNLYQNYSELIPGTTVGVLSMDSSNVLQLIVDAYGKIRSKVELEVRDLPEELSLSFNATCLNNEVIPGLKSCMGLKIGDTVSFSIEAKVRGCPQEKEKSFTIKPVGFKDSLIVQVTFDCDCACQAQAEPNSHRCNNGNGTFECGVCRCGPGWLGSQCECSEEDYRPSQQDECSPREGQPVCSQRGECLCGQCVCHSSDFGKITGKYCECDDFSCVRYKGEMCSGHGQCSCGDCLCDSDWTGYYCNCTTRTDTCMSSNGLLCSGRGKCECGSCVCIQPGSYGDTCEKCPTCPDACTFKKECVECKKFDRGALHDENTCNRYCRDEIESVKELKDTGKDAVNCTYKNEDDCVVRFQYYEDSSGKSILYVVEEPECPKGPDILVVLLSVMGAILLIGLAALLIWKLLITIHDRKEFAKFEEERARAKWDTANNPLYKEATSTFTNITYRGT", "test": "His-tag pull-down on nickel beads from NHDF lysate, Western blot for β3 integrin"}},
  "note": "Where “and” joins values, the source holds several entries; their conditions need not be identical. Identical values can stand only once.",
  "data": [
    {"binder": "B1", "values": [
      {"measurement": "IC50 for HCMV neutralization (HCMV-GFP infectivity of NHDFs, flow cytometry)", "setting": "β1 integrin", "result": "20.5 µg/mL and 1.96 µM"},
      {"measurement": "binding result", "setting": "β3 integrin", "result": "no binding (tested: 20 µg gBDLD in 350 µL cell lysate)"}
    ]}
  ]
}
